In patent US20240067748A1 (NONA BIOSCIENCES SUZHOU, published 2024):
Substitutions are numbered along the chain they refer to.

Legend:
[1] = target: T1, human TROP2 protein (Sino Biological, #10428-H08H) (human, UniProt P09758 27-274); assay: BLI, Octet RED96, AHC sensor
T1 construct: bought protein; also called human Trop2 protein antigen (His tag); not shown: His tag
T1 sequence (looked up): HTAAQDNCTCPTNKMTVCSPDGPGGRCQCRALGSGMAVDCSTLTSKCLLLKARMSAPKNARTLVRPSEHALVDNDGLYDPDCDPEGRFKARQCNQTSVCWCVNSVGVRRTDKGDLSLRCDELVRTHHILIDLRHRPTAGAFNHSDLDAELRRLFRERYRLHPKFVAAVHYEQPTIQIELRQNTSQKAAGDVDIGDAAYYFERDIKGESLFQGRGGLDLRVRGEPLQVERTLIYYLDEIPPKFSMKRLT
Description: (§1) Specifically, a human TROP2 protein (Sino Biological, #10428-H08H) or a monkey Trop2 protein (Sino Biological, #90893-C08H) was diluted to 200 nM with a PBS buffer (pH 7.4) containing 0.1% (w/w) BSA and 0.02% (v/v) tween 20, and incubated with the AHC sensor respectively. 40 nM Trop2 antibody was incubated at 30° C. for 3 min with the AHC sensor loaded with the human Trop2 protein or monkey Trop2 protein respectively. The reaction mixture was incubated at 30° C. for another 5 min in a PBS buffer (pH 7.4) containing 0.1% (v/w) BSA and 0.02% (v/v) Tween 20. The association and dissociation signals between the Trop2 antibody and the human Trop2 protein or monkey Trop2 protein were recorded by Octet Red 96 in real time. The affinity and the association and dissociation constants were determined by Octet using software.

[2] = target: T2, monkey Trop2 protein (Sino Biological, #90893-C08H) (monkey, UniProt A0A2K5UE71 27-274); assay: BLI, Octet RED96, AHC sensor
T2 construct: bought protein; also called monkey Trop2 protein antigen (His tag)
T2 sequence: T1 sequence (looked up) with M36V, K46E, S67N, I204V
Description: as §1

[3] = target: T2, monkey Trop2 protein (Sino Biological, …); assay: BLI, Octet RED96; ratio against KD for human Trop2 protein
Description: as §1

human Trop2 on cells = target: T3, human Trop2 on cells (human, UniProt P09758 27-323); assay: flow cytometry on 293T-human Trop2 cells
T3 construct: whole, on cells; also called hTrop2; 293T-human Trop2 cells
T3 sequence (looked up): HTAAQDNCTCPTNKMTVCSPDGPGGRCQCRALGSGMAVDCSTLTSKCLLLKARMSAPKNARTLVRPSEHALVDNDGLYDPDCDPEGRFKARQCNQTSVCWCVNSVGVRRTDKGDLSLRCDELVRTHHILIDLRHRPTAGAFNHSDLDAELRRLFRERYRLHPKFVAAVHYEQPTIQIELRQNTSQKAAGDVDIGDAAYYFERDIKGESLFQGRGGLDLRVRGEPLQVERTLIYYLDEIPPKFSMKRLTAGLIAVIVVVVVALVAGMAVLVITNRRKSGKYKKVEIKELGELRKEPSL
Description: The cell density was determined, and the cells were resuspended to 1×10⁶ cells/mL in PBS. 100 μL of cell suspension was taken from each well and added to a 96 well V-bottom plate. The 96-well V-bottom plate was centrifuged at 1000 rpm for 5 min and washed once with PBS+0.5% BSA (VWR, #0332-100G). […] After 1 h, the cells were washed twice with PBS+0.5% BSA. The cells were incubated with 100 μL of Alexa Fluor 488 goat anti-human IgG (Life technologies, 1:1000, #A-11013) at 4° C. for 1 h in the dark, and washed twice with PBS+0.5% BSA. The cells were resuspended in 200 μL of PBS+0.5% BSA. The fluorescence intensity of the cells was analyzed using a FACS verse flow cytometer. All procedures were performed on ice.

B1: PR001147 (antibody, human IgG1, kappa, V domains shown)
VH: QVNLVESGGGVVQPGRSLKLSCAASGFTFSSYGMHWVRQAPGKGLEWVAFIWSDGTNRYYPESVKGRFTISRDDSRNTVSLQMNSLRPEDTAVYYCARDGWGTYGEYFQHWGQGTLVTVSS
VL: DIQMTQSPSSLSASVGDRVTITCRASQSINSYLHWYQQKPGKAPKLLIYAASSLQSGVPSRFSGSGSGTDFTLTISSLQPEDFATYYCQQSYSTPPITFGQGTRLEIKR
notes: fully human IgG1/kappa; also called antibody No. (12)
Kd [1]: 0.498 nM | Response [1]: 0.349 | koff [1]: 4.23e-05 s⁻¹ | kon [1]: 85000 M⁻¹ s⁻¹ | Kd [2]: 1.92 nM | Response [2]: 0.341 | koff [2]: 0.000117 s⁻¹ | kon [2]: 60900 M⁻¹ s⁻¹ | KD (monkey)/KD (human) [3]: 3.86 | EC50 (human Trop2 on cells): 1.31 nM | Maximum (MFI) (human Trop2 on cells): 7420 MFI | Top % (human Trop2 on cells): 115%

B2: PR001134 (antibody, human IgG1, kappa, V domains shown)
VH: QVQLVESGGGVVQPGRSLRVSCIASGFFFSSYGMHWVRQAPGKGLEWVAVIWYDGSNEDYVDSVKGRFTISRDNSKNTLYLQMNSLRGEDTAMYYCARGGYNSGWWAFDIWGQGTMVTVSS
VL: DIQMTQSPSSLSASVGDRVTITCRASQGISHFLAWYQQKPGKVPKLLIYAASTLQSGVPSRFSGSGSGTDFTLTISSLQPEDVATYYCQKFNSAPLTFGGGTKVEIKR
notes: fully human IgG1/kappa; also called antibody No. (6)
Kd [1]: 5.42 nM | Response [1]: 0.354 | koff [1]: 0.000451 s⁻¹ | kon [1]: 83100 M⁻¹ s⁻¹ | Kd [2]: 9.33 nM | Response [2]: 0.335 | koff [2]: 0.000512 s⁻¹ | kon [2]: 54900 M⁻¹ s⁻¹ | KD (monkey)/KD (human) [3]: 1.72 | EC50 (human Trop2 on cells): 0.653 nM | Maximum (MFI) (human Trop2 on cells): 6040 MFI | Top % (human Trop2 on cells): 93.2%

B3: PR001143 (antibody, human IgG1, kappa, V domains shown)
VH: B2 VH with I23A, F28I, S31T, M93V, I110V, M116L
VL: B2 VL
notes: fully human IgG1/kappa; also called antibody No. (10)
Kd [1]: 6.94 nM | Response [1]: 0.335 | koff [1]: 0.000556 s⁻¹ | kon [1]: 80100 M⁻¹ s⁻¹ | Kd [2]: 12.4 nM | Response [2]: 0.308 | koff [2]: 0.000645 s⁻¹ | kon [2]: 52100 M⁻¹ s⁻¹ | KD (monkey)/KD (human) [3]: 1.78 | EC50 (human Trop2 on cells): 0.795 nM | Maximum (MFI) (human Trop2 on cells): 6300 MFI | Top % (human Trop2 on cells): 97.2%

B4: PR001153 (antibody, human IgG1, kappa, V domains shown)
VH: QVQLQESGPGLVKPSGTLSLTCAVSGGSISSSNWWSWVRQPPGKGLEWIGEIYHDGSTDYNPSLKSRVIISVDKSKNQFSLKVRSVTAADTAVYYCARDNWGFDYWGQGTLVTVSS
VL: EIVLTQFPGTLSLSPGERATLSCRSSQSVSSSYLAWYQQKPGQAPRLLISGASSRATGIPDRFSGSGSGTDFTLTISRLEPEDFAVYYCQQYGSSPRTFGQGTKVEIKR
notes: fully human IgG1/kappa; also called antibody No. (16)
Kd [1]: 0.0323 nM | Response [1]: 0.381 | fold lower KD than the reference antibody Tab (hRS7) [1]: ~10 fold | koff [1]: 2.53e-06 s⁻¹ | kon [1]: 78600 M⁻¹ s⁻¹ | Kd [2]: 0.181 nM | Response [2]: 0.337 | koff [2]: 1.07e-05 s⁻¹ | kon [2]: 59300 M⁻¹ s⁻¹ | KD (monkey)/KD (human) [3]: 5.61 | EC50 (human Trop2 on cells): 2.47 nM | Maximum (MFI) (human Trop2 on cells): 6940 MFI | Top % (human Trop2 on cells): 107%

B5: PR001164 (antibody, human IgG1, kappa, V domains shown)
VH: QVQLQQSGPGLVKPSQTLSLTCAISGDSVSSTSAVWNWIRQSPSRGLEWLGRTCYRSKWYNDYAVSVKSRITITPDTSKNQFSLRLNPVTPEDTAVYYCARGDFRFDSWGQGTLVTVSS
VL: DIQLTQSPSFLSASVGDRVTITCRASQGISSYLAWYQQKPGKAPKLLIYAASTLQSGVPSRFSGSGSGTEFTLTISSLQPEDFATYYCQQVKIYPLTFGGGTKVEIKR
notes: fully human IgG1/kappa; also called antibody No. (25)
Kd [1]: 2.41 nM | Response [1]: 0.194 | koff [1]: 0.000262 s⁻¹ | kon [1]: 109000 M⁻¹ s⁻¹ | Kd [2]: 2.04 nM | Response [2]: 0.173 | koff [2]: 0.000162 s⁻¹ | kon [2]: 79400 M⁻¹ s⁻¹ | KD (monkey)/KD (human) [3]: 0.85 | EC50 (human Trop2 on cells): 2.4 nM | Maximum (MFI) (human Trop2 on cells): 8950 MFI | Top % (human Trop2 on cells): 138%

B6: PR001168 (antibody, human IgG1, kappa, V domains shown)
VH: QVQLVESGGGVVQPGRSLRLSCATSGFIFSSYGMHWVRQAPGKGLDWVAVIWYDGSNKYYADSVKGRFTISRDNSKNTLYLQMNSLRVEDTAVYYCARETSSWYVGYLQHWGQGTLVTVSS
VL: EIVMTQSPATLSVSPGERVSLSCRASQSVNGNVAWYQQKPGQAPRLLIYAASTRATGIPARFSGSGSGTESTLTISSLQSEDCAVYYCQQYNNWPSTFGPGTKLEVTR
notes: fully human IgG1/kappa; also called antibody No. (28)
Kd [1]: 1.59 nM | Response [1]: 0.333 | koff [1]: 0.00014 s⁻¹ | kon [1]: 88000 M⁻¹ s⁻¹ | Kd [2]: 2.45 nM | Response [2]: 0.311 | koff [2]: 0.000145 s⁻¹ | kon [2]: 59300 M⁻¹ s⁻¹ | KD (monkey)/KD (human) [3]: 1.54 | EC50 (human Trop2 on cells): 0.669 nM | Maximum (MFI) (human Trop2 on cells): 6780 MFI | Top % (human Trop2 on cells): 105%
